The values that follow are results of earlier work, collected in PMC12730246.

For this data set, the target named is TKS4 peptide (Homo sapiens) (UniProt A1X283).

In general, Kd refers to the equilibrium constant for the complex coming apart. “TKS4 tandem SH3 tandem SH3 (from UniProt A1X283)”: the Kd is 12 µM.
